These results are taken from PMC4174439 (RNA, 2014).

The data set deals with the molecule itself. Kind of data set: SDS-PAGE.

B1: Cd-HfqHis6 (Clostridium difficile Hfq bearing a C-terminal His-tag) (natural protein, Clostridium difficile strain 630, UniProt Q187T2 1-86, looked up)
chain: MKNTVLNLQDLFLNNARKERIPVTIYLVNGVQVKGLVKGFDSYIILIEGDNRQQNMIYKHAVSTIQPGKYINLTNQNQNNNNNNNR
In general, stoichiometry N refers to a count of units in the complex or per binding partner. Regarding B1, the “stoichiometry N” value was found to be 6.
